From patent US20070167369A1, “Novel use of isolated polypeptide comprising four FAS-1 domains, EM1 domain and RGD motif” (KYUNGPOOK NATIONAL UNIVERSITY INDUSTRY-ACADEMIC COOPERATION …, priority 2004, published 2007)

B1: Regenin: size control of truncated βig-h3: protein that expresses four copies of the fourth fas-1 domain (protein)
chain: MGTVMDVLKGDNRFSMLVAAIQSAGLTETLNREGVYTVFAPTNEAFRALPPRERSRLLGDAKELANILKYHIGDEILVSGGIGALVRLKSLQGDKLEVSLKNNVVSVNKEPVAEPDIMATNGVVHVITNVLMGTVMDVLKGDNRFSMLVAAIQSAGLTETLNREGVYTVFAPTNEAFRALPPRERSRLLGDAKELANILKYHIGDEILVSGGIGALVRLKSLQGDKLEVSLKNNVVSVNKEPVAEPDIMATNGVVHVITNVLMGTVMDVLKGDNRFSMLVAAIQSAGLTETLNREGVYTVFAPTNEAFRALPPRERSRLLGDAKELANILKYHIGDEILVSGGIGALVRLKSLQGDKLEVSLKNNVVSVNKEPVAEPDIMATNGVVHVITNVLMGTVMDVLKGDNRFSMLVAAIQSAGLTETLNREGVYTVFAPTNEAFRALPPRERSRLLGDAKELANILKYHIGDEILVSGGIGALVRLKSLQGDKLEVSLKNNVVSVNKEPVAEPDIMATNGVVHVITNVL
B2: βig-h3 D-II: recombinant protein containing the second fas-1 domain of human βig-h3 (SEQ ID NO: 62) (protein, listed as Homo sapiens)
chain: NIQQIIEIEDTFETLRAAVAASGLNTMLEGNGQYTLLAPTNEAFEKIPSETLNRILGDPEALRDLLNNHILKSAMCAEAIVAGLSVETLEGTTLEVGCSGDMLTINGKAIISNKDILATNGVIHYIDELLI

Experiments:
Format in all cases: cell-based, human
[1] = system: HUVECs; experiment: Endothelial tube formation in Matrigel (Example 14)
Description: Matrigel (Chemicon, International Inc, Temecula, Calif.) was added (100 μl) into each well of a 96-well plate and polymerized for 30 minutes at 37° C. HUVECs were suspended in medium at a density of 3×10^5 cells/ml, and 0.1 ml of the cell suspension was pre-incubated with or without the indicated concentration of the truncated βig-h3, the fas-1 domain and Regenin for 40 min at 37° C., then seeded on the surface of the Matrigel. Cells were incubated for 6 to 10 hours at 37° C. The cells were then photographed, and branch points from 4 high-power fields (x200) were counted and averaged.

[2] = system: HUVEC; experiment: Adhesion of endothelial cells to vitronectin (Example 13-1)
Description: Flat-bottomed 96-well ELISA plates (Costar, Corning, Inc., NY) were incubated overnight at 4° C. with 5 μg/ml of vitronectin (Promega, Madison, Wis.) and blocked for 1 hour at room temperature with PBS containing 2% bovine serum albumin (BSA).
Primary human umbilical vein endothelial cells (HUVEC) were cultured at 37° C. in 5% CO2 in M199 medium supplemented with 20% fetal bovine serum. For all the experiments, HUVECs were used at passage 4 or less. HUVEC cells were suspended in medium at a density of 3×10^5 cells/ml, and 0.1 ml of the cell suspension was pre-incubated with or without the indicated concentration of the truncated βig-h3, the fas-1 domain and Regenin for 40 min at 37° C., then added to each well of the coated. After incubation for 5 to 10 minutes at 37° C., unattached cells were removed by rinsing with PBS. Attached cells were then incubated for 1 hour at 37° C. in 50 mM citrated buffer (pH 5.0) containing 3.75 mM p-nitrophenyl-N-acetyl-Dglycosamide and 0.25% Triton X-100. Enzyme activity was blocked by adding 50 mM glycine buffer (pH 10.4) containing 5 mM EDTA, and the absorbance was measured at 405 nm in a Bio-Rad model 550 microplate reader.

[3] = system: HUVECs; experiment: Migration of endothelial cells to vitronectin, transwell (Example 13-2)
Description: Cell migration assays were done in transwell plates (8 μm pore size, Costar, Cambridge, Mass.). The undersurface of the membrane was coated with 5 μg/ml of vitronectin at 4° C. and blocked for 1 hour at room temperature with PBS containing 2% BSA. HUVECs were suspended in medium at a density of 3×10^5 cells/ml, and 0.1 ml of the cell suspension was pre-incubated with or without the indicated concentration of the truncated βig-h3, the fas-1 domain and Regenin for 40 min at 37° C., then added to the upper compartment of the filter. Cells were allowed to migrate for 4 to 6 hours at 37° C. The filters were fixed with 8% glutaraldehyde and stained with crystal violet, and non-migrating cells on the upper surface of the filter were removed by wiping with a cotton swab. The extent of cell migration was determined by light microscopy, and within each well, counting was done in nine randomly selected microscopic high power fields (x200).

[4] = system: HUVECs; experiment: Endothelial tube formation assay on Matrigel (Examples 9-1 and 11); details: Example 11; controls BSA or Nus protein
Description: First, 100 μl of Matrigel (Chemicon, International Inc, Temecula, Calif.) was added to each well of a 96-well plate and allowed to polymerize. HUVECs were suspended in medium at a density of 3×10^5 cells/ml, and 0.1 ml of the cell suspension was added to each well of the plate coated with Matrigel. At this time, 5 μM or 10 μM of the fas-1 domain (βig-h3 D-IV) prepared in Example 1 above was added together. A control was either treated with BSA or had no treatment. Thereafter, the cells were incubated at 37° C. for 16-18 hours. The cells were photographed, and endothelial tubes were counted and averaged.
For this purpose, the second fas-1 domain of βig-h3 (βig-h3 D-II) was prepared in the same manner as in Example 1-1 above. Since each domain of stabilin-II is insoluble, it was prepared in the form of soluble protein by cloning into the BamHI/XhoI sites of a Nus-conjugated pET43.1 vector (Novagen, USA). The prepared recombinant proteins were named “Nus-fas3” and “Nus-fas7”, respectively. A control to the second fas-1 domain of βig-h3 was treated with BSA, and a control to the fas-1 domain of stabilin-II was treated with a Nus protein. Thereafter, an endothelial tube formation assay was performed in the same manner as in Example 9-1.

| Molecule | 70%-inhibition of tube formation observed at ([1]; concentration giving 70% inhibition) [µM] | inhibition of tube formation ([1]; various concentrations, 6 to 10 hours) | inhibition of adhesion to vitronectin ([2]; 500 nM) | inhibition of adhesion to vitronectin ([2]; various concentrations, vitronectin 5 μg/ml) | IC50 ([3]; read-out: half-inhibition of migration toward vitronectin observed at) [µM] | inhibition of migration to vitronectin ([3]; various concentrations, 4 to 6 hours) | inhibition of endothelial tube formation by various fas-1 domains [4] |
| --- | --- | --- | --- | --- | --- | --- | --- |
| B1 | 5 | dose-dependent inhibition | ineffective | dose-dependent inhibition | 5 | dose-dependent inhibition |  |
| B2 |  |  |  |  |  |  | completely inhibited |
